Measurements from IntAct's records for PubMed 19098916.

Molecular target: brr2_yeast BRR2 (UniProt P32639)
Sequence (P32639 whole entry): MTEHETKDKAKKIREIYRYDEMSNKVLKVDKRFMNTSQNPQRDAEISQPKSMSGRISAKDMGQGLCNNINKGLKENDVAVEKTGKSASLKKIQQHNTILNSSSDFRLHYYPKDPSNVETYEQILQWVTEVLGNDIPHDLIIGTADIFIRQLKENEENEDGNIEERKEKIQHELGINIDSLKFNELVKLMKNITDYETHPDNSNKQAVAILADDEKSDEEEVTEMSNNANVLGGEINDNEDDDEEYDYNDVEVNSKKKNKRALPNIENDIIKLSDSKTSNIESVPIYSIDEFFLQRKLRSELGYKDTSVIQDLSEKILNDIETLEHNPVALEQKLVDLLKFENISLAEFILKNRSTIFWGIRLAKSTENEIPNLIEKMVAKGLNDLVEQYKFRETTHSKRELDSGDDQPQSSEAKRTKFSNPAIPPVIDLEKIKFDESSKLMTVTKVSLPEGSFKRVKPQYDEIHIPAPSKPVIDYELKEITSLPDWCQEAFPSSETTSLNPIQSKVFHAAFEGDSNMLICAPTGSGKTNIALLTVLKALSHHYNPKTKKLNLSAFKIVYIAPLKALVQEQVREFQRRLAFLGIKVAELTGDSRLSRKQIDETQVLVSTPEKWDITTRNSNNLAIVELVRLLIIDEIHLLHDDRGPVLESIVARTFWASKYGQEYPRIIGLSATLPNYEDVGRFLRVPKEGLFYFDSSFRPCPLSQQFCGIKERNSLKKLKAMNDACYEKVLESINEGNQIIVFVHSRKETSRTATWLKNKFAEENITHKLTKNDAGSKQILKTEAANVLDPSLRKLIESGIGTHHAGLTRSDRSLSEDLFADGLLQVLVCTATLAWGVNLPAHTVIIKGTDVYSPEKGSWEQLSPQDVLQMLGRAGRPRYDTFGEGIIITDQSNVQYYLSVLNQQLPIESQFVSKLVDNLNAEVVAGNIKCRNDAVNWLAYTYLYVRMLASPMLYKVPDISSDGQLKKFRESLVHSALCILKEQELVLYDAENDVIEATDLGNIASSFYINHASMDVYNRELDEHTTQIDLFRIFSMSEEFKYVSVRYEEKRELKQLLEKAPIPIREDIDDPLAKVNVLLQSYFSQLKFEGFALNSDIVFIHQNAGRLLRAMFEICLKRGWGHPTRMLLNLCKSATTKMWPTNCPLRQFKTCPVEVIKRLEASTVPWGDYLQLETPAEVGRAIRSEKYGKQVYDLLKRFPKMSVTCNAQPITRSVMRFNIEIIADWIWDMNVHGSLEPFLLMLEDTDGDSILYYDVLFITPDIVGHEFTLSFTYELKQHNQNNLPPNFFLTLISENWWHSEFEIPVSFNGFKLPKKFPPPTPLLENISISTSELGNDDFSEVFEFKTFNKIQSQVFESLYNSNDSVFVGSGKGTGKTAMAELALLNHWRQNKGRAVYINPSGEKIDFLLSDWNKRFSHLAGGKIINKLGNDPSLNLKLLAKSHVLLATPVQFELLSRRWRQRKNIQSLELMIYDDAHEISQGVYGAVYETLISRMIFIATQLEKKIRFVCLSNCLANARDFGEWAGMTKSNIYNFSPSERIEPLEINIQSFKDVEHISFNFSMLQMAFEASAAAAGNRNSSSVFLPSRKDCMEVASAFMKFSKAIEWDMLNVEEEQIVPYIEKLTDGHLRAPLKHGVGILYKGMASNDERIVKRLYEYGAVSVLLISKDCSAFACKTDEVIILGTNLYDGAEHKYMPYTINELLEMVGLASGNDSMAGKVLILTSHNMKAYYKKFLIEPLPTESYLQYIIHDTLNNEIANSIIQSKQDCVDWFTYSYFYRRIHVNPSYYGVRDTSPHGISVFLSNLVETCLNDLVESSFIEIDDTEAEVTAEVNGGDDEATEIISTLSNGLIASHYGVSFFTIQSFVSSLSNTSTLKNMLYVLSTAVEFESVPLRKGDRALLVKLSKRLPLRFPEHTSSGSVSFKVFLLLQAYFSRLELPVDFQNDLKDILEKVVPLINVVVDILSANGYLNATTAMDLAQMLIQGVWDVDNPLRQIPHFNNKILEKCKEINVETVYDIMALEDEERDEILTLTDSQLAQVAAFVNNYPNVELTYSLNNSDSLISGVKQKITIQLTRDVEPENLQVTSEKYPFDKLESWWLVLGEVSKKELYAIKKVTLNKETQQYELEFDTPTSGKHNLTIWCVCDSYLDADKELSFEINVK

Chain of Pre-mRNA-splicing factor 8 (Saccharomyces cerevisiae), P33334 H2387P (P33334 whole entry H2387P): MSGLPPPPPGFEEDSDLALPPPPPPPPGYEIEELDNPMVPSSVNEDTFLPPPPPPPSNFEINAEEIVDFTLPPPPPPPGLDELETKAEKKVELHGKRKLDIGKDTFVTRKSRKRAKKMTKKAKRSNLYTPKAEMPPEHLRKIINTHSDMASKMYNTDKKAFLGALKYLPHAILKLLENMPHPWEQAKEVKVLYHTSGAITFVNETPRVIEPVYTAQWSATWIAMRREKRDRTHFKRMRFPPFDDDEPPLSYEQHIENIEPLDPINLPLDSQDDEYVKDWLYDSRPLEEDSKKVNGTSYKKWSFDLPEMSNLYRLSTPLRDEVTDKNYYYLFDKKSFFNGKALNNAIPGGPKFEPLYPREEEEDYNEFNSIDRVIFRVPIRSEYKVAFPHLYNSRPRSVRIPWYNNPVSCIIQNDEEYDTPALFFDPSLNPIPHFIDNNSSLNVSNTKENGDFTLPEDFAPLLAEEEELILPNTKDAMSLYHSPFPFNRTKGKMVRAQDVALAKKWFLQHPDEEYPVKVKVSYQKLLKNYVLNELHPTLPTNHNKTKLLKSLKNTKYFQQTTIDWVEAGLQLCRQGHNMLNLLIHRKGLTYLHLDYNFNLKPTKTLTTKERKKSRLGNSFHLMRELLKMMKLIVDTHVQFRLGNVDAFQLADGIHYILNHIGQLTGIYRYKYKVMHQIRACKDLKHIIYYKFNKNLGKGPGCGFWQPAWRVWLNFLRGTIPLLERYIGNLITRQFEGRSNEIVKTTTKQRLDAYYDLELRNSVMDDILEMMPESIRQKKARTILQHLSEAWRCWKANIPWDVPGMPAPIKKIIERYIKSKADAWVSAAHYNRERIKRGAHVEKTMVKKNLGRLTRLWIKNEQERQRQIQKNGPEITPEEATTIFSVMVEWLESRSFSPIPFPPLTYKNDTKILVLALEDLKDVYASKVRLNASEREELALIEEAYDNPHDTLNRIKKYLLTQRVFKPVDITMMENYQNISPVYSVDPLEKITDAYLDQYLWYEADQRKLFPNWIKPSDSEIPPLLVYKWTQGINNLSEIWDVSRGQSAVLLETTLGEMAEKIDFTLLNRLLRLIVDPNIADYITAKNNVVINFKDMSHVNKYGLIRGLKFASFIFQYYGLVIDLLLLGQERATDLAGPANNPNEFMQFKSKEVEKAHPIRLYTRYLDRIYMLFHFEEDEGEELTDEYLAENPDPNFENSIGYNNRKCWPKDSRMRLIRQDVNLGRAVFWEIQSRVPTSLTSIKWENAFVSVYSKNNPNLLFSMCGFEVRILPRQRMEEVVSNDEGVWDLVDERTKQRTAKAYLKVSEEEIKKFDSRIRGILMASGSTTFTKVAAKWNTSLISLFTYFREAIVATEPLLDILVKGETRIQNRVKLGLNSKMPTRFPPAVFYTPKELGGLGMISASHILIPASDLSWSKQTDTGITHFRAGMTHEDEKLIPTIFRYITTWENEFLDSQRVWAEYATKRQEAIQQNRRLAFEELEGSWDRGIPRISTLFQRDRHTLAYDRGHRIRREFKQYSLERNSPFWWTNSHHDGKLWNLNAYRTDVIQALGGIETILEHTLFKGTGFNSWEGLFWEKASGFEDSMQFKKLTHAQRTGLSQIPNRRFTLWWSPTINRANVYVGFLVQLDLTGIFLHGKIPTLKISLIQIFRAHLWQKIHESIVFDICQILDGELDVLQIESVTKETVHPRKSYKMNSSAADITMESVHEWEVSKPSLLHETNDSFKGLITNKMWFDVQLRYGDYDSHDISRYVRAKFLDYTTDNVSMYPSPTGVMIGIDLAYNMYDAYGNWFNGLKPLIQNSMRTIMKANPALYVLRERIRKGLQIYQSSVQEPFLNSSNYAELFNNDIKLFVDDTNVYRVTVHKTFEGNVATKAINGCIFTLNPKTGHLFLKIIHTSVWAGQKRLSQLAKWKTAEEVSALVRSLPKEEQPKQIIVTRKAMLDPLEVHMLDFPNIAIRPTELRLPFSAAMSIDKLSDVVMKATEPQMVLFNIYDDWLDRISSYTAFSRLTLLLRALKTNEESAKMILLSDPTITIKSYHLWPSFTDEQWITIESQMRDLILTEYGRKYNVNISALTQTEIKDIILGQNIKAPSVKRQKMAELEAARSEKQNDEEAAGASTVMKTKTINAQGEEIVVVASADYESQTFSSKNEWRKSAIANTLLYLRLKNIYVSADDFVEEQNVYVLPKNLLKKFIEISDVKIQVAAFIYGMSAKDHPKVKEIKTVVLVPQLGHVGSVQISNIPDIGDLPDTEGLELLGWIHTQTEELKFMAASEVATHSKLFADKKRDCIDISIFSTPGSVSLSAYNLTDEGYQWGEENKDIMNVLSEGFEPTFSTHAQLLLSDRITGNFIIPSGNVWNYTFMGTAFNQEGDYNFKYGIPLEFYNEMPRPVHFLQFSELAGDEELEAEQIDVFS

Substance | effect of a mutation on the interaction
Pre-mRNA-splicing factor 8 (Saccharomyces cerevisiae), P33334 H2387P | disrupting interaction strength
Pre-mRNA-splicing factor 8 (Saccharomyces cerevisiae), P33334 H2387R | disrupting interaction strength
Pre-mRNA-splicing factor 8 (Saccharomyces cerevisiae), P33334 R2388K | disrupting interaction strength
Pre-mRNA-splicing factor 8 (Saccharomyces cerevisiae), P33334 R2388G | disrupting interaction strength
